Molecular target: MBP-tag-fused HER2 intracellular domain (ICD, 712 aa-1255 aa) (human, UniProt P04626 712-1255)
Test: SPR

| Kd [nM] | Binder |
| --- | --- |
| 4.24 | MBP-tag-fused intracellular domain (ICD) of WT TβRI (148 aa-503 aa) (domain or fragment, human, UniProt P36897 148-503, looked up) CHNRTVIHHRVPNEEDPSLDRPFISEGTTLKDLIYDMTTSGSGSGLPLLVQRTIARTIVLQESIGKGRFGEVWRGKWRGEEVAVKIFSSREERSWFREAEIYQTVMLRHENILGFIAADNKDNGTWTQLWLVSDYHEHGSLFDYLNRYTVTVEGMIKLALSTASGLAHLHMEIVGTQGKPAIAHRDLKSKNILVKKNGTCCIADLGLAVRHDSATDTIDIAPNHRVGTKRYMAPEVLDDSINMKHFESFKRADIYAMGLVFWEIARRCSIGGIHEDYQLPYYDLVPSDPSVEEMRKVVCEQKLRPNIPNRWQSCEALRVMAKIMRECWYANGAARLTALRIKKTLSQLSQQEGIKM |
| 2.68 | MBP-tag-fused intracellular domain (ICD) of activated (GGD) TβRI (148 aa-503 aa) (domain or fragment, human, UniProt P36897 148-503, looked up) CHNRTVIHHRVPNEEDPSLDRPFISEGTTLKDLIYDMTTSGSGSGGGLLVQRTIARDIVLQESIGKGRFGEVWRGKWRGEEVAVKIFSSREERSWFREAEIYQTVMLRHENILGFIAADNKDNGTWTQLWLVSDYHEHGSLFDYLNRYTVTVEGMIKLALSTASGLAHLHMEIVGTQGKPAIAHRDLKSKNILVKKNGTCCIADLGLAVRHDSATDTIDIAPNHRVGTKRYMAPEVLDDSINMKHFESFKRADIYAMGLVFWEIARRCSIGGIHEDYQLPYYDLVPSDPSVEEMRKVVCEQKLRPNIPNRWQSCEALRVMAKIMRECWYANGAARLTALRIKKTLSQLSQQEGIKM |
